Results as given in the Immune Epitope Database (IEDB).

Tests used:
[1] = molecular target: HLA-A*02:03; assay: IEDB peptide-MHC binding, cellular MHC/competitive/fluorescence; ≥ and ≤ were set here for values at or beyond the usual limits of such assays
[2] = molecular target: HLA-A*68:02; assay: as above
[3] = molecular target: HLA-A*02:01; assay: IEDB peptide-MHC binding, purified MHC/competitive/radioactivity; ≥ and ≤ were set here for values at or beyond the usual limits of such assays
[4] = molecular target: HLA-A*02:02; assay: as above
[5] = molecular target: HLA-A*02:06; assay: as above
[6] = molecular target: HLA-A*02:01; assay: IEDB peptide-MHC binding, cellular MHC/competitive/fluorescence; ≥ and ≤ were set here for values at or beyond the usual limits of such assays
[7] = molecular target: HLA-A*02:06; assay: as above
[8] = molecular target: HLA-A*68:02; assay: IEDB peptide-MHC binding, purified MHC/competitive/radioactivity; ≥ and ≤ were set here for values at or beyond the usual limits of such assays
[9] = source organism: Vaccinia virus WR
[10] = source organism: Influenza A virus
[11] = source organism: Mammarenavirus machupoense
[12] = source organism: Mammarenavirus guanaritoense

Sequence: VVYHDDDNTT
- IC50 [1, 9]: 12.6 µM
- IC50 [2, 9]: 27.8 µM
- IC50 [3, 9]: 2.98 µM
- IC50 [4, 9]: 1.86 µM
- IC50 [5, 9]: 3.92 µM

Sequence: TVSSFQDIL
- IC50 [6, 10]: 40.7 µM
- IC50 [1, 10]: 8.97 µM
- IC50 [7, 10]: 13.8 µM
- IC50 [4, 10]: 0.457 µM
- IC50 [8, 10]: 0.846 µM

Sequence: SSWAVHWFS
- IC50 [6, 11]: 8.01 µM
- IC50 [1, 11]: ≥ 70 µM
- IC50 [7, 11]: 46.8 µM
- IC50 [4, 11]: 4.65 µM
- IC50 [8, 11]: 4.1 µM

Sequence: VQTLISLNSM
- IC50 [1, 9]: 5.82 µM
- IC50 [2, 9]: 50.9 µM
- IC50 [3, 9]: 0.259 µM
- IC50 [4, 9]: 1.56 µM
- IC50 [5, 9]: 0.853 µM

Sequence: VLTSVDIET
- IC50 [1, 9]: 11.3 µM
- IC50 [2, 9]: 37.5 µM
- IC50 [3, 9]: 0.136 µM
- IC50 [4, 9]: 0.382 µM
- IC50 [5, 9]: 0.014 µM

Sequence: EIARIENEM
- IC50 [6, 9]: ≥ 70 µM
- IC50 [1, 9]: 47.9 µM
- IC50 [7, 9]: ≥ 70 µM
- IC50 [4, 9]: 0.335 µM
- IC50 [8, 9]: 0.0084 µM

Sequence: GARVIWMDA
- IC50 [6, 9]: 7.73 µM
- IC50 [1, 9]: 9.14 µM
- IC50 [2, 9]: 12 µM
- IC50 [4, 9]: 4.61 µM
- IC50 [5, 9]: 2.14 µM

Sequence: TVGMLIYSM
- IC50 [1, 9]: 6.09 µM
- IC50 [7, 9]: 9.18 µM
- IC50 [3, 9]: 0.809 µM
- IC50 [4, 9]: 0.49 µM
- IC50 [8, 9]: 1.79 µM

Sequence: VQLSNNKYVL
- IC50 [1, 9]: 9.49 µM
- IC50 [2, 9]: ≥ 70 µM
- IC50 [3, 9]: 4.59 µM
- IC50 [4, 9]: 0.288 µM
- IC50 [5, 9]: 0.17 µM

Sequence: DTSNNIAEYI
- IC50 [6, 9]: 6.29 µM
- IC50 [1, 9]: 9.22 µM
- IC50 [7, 9]: 45.7 µM
- IC50 [4, 9]: 3.33 µM
- IC50 [8, 9]: 0.047 µM

Sequence: LCFWSAIFFT
- IC50 [6, 12]: 5.57 µM
- IC50 [1, 12]: 30.3 µM
- IC50 [7, 12]: 34.6 µM
- IC50 [4, 12]: 2.61 µM
- IC50 [8, 12]: 1.82 µM

Sequence: ELPYVGDTSM
- IC50 [6, 9]: 13.4 µM
- IC50 [1, 9]: 14.2 µM
- IC50 [7, 9]: 29.8 µM
- IC50 [4, 9]: 4.13 µM
- IC50 [8, 9]: 0.913 µM

Sequence: VLFQNWGI
- IC50 [1, 10]: 10.1 µM
- IC50 [2, 10]: 54.8 µM
- IC50 [3, 10]: 0.849 µM
- IC50 [4, 10]: 1.55 µM
- IC50 [5, 10]: 2.64 µM
